Experiment [1] deals with CVA16 mature virion (strain CVA16/190) (coxsackievirus A16 (strain CVA16/190)).
The target in experiment [2] is T1, CVA16 empty particle (strain CVA16/190) (Coxsackievirus A16, strain CVA16/190 …, strain).
T1 chain 1: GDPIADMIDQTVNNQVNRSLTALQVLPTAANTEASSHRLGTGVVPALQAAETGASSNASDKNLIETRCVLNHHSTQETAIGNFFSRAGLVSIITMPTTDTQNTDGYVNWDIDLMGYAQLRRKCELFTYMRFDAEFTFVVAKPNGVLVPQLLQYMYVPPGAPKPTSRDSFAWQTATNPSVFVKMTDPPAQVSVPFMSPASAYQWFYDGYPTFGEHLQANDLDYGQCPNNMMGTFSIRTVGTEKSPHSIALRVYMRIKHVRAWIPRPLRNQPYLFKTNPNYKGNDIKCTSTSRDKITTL
T1 chain 2: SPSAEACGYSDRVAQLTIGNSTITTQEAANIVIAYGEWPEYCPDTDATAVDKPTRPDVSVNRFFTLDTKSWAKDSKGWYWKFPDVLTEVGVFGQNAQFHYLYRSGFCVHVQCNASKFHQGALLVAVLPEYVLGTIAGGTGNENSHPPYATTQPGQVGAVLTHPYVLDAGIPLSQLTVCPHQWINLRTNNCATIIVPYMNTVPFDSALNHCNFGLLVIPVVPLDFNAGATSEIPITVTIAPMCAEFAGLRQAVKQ
T1 chain 3: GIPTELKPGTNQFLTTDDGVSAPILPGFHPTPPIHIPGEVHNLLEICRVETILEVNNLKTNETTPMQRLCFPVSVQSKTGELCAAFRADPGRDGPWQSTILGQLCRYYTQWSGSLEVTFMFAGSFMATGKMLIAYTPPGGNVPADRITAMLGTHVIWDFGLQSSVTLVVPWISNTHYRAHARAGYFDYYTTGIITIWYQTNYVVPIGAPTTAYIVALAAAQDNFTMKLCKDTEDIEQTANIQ
Briefly: ELISA. (In general: ELISA stands for enzyme-linked immunosorbent assay.)

Experiment [3] has as its target T2, CVA16 mature virion (strain CVA16/190) (Coxsackievirus A16, strain CVA16/190 …, strain).
T2 chain 1: T1 chain 1
T2 chain 2: T1 chain 2
T2 chain 3: T1 chain 3
T2 chain 4: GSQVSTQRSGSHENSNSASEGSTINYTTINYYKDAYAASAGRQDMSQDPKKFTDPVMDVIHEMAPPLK
The experiment can be described thus: cryo-EM structure.

Experiment [4] concerns the target T3, CVA16 A-particle (strain CVA16/190) (Coxsackievirus A16, strain CVA16/190 …, strain).
T3 chain 1: T1 chain 1
T3 chain 2: T1 chain 2
T3 chain 3: T1 chain 3
The experiment can be described thus: cryo-EM structure.

In experiment [5] the target is T1, CVA16 empty particle (strain CVA16/190). Briefly: cryo-EM structure.

These results are taken from publication PMC7539366 (Cell host & microbe, 2020).

B1: Mouse Monoclonal Antibody-14B10 (antibody, V domains shown)
VH: QVQLQQSGPELVKPGASVKISCKASGYEFSRSWMNWVKQRPGQGLEWIGRIYPGDGDTNYNGKFRDKATLTADKSSSTAYMQLSRLTSVDSAVYFCARRRGYFDVWGAGTTVTVS
VL: DIQMTQSSSYLSVSLGGRVTITCKASDHINNWLAWYQQKPGNAPRLLISGATSLETGIPSRFSGSGSGKDYTLSITSLQTEDVGTYYCQQYWSTPTFGGGTKLEIK
In experiment [1], B1 showed an IC50 of neutralisation of CVA16/190 in RD cells (micro-neutralization, Elispot) of 1.01 µg/mL. Further, in experiment [2], the binding result is recorded as “no binding”.

B2: 14B10 Fab fragment (Fab, V domains shown)
VH: B1 VH
VL: B1 VL
Consider B2, for which the stoichiometry N (commonly the number of molecules, sites or subunits per partner or assembly) in experiment [3] is not above 60 Fabs per mature virion.

B3: Mouse Monoclonal Antibody-NA9D7 (antibody, V domains shown)
VH: EVQLQQSGPELVKPGASVKMSCKASGYTFTDYYMKWVKQSHGKSLEWIGDINPNNGATSYNQKFKGKATLTVDKSSSTAYMQLNSLTSEDSAVYYCARRGYGLYYAMDYWGQGTSVTVSS
VL: EIVLTQSPTTMAASPGEKITITCSASSSISSNYLHWYQQKPGFSPKLLIYRTSNLASGVPARFSGSGSGTSYSLTIGTMEAEDVATYYCQQGSSIPHTFGGGTKLEIK
Molecule B3 showed an IC50 of neutralisation of CVA16/190 in RD cells (micro-neutralization, Elispot) in experiment [1] of 1.96 µg/mL. For the same molecule, the binding result in experiment [2] is “no binding”.

B4: NA9D7 Fab fragment (Fab, V domains shown)
VH: B3 VH
VL: B3 VL
For B4, the “stoichiometry N” value in experiment [3] is not above 60 Fabs per mature virion.

B5: Mouse Monoclonal Antibody-18A7 (antibody, V domains shown)
VH: EVQLQQSGPELVKPGASVKMSCKASGYTFTDYYMKWVKQSHGKSLEWIGDINPYNGDSFNNQKFKGKATLTVDTSSSTAYMQLNSLTSEDSAVYYCAIPYDYDEGWFAYWGQGTLVTVSA
VL: DIVMSQSPSSLAVSVGEKVTMSCKSSQSLLYSNNQKNYLAWYQQKPGQSPQLLIYWASTRESGVPDRFTGSESGTDFTLTISSVKAEDLAVFYCQQYYNYPWTFGGGTKLEIK
For B5, the IC50 of neutralisation of CVA16/190 in RD cells (micro-neutralization, Elispot) in experiment [1] came to 0.04 µg/mL.

B6: 18A7 Fab fragment (Fab, V domains shown)
VH: B5 VH
VL: B5 VL
Take B6: the “stoichiometry N” value in experiment [4] and in experiment [5] was 12 Fabs per viral particle each time.
